Measurements from publication PMC6092110, “Binding of Dickkopf-3 to CXCR7 Enhances Vascular Progenitor Cell Migration and Degradable Graft Regeneration” (Circulation Research, 2018).

Target: T1, CXCR7 (HA tagged) overexpressed in HEK 293T cells (UniProt P56485 1-362)
T1 construct: CXCR7 (C-X-C chemokine receptor type 7), HA tagged, overexpressed from an expression plasmid in HEK 293T cells; source: HEK 293T, transfected, in lysate
Assay: ELISA; saturation binding: lysates of HEK 293T cells overexpressing the receptor loaded onto high-affinity-binding ELISA plates coated with anti-HA antibody; serial dilutions of AP-conjugated ligand (or AP alone); AP activity read; Scatchard analysis; n=3
Details: one partner purified

T1 sequence (P56485 whole entry): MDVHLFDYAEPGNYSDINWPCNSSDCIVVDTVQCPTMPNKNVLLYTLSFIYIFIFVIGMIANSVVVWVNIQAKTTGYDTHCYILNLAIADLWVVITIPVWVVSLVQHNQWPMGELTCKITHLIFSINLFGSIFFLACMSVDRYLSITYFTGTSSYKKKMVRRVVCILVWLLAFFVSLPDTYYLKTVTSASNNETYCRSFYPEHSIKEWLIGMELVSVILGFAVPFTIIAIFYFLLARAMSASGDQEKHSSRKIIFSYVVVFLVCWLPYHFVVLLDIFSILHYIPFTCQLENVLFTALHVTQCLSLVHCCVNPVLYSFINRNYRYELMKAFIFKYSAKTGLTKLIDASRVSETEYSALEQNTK

Kd: 14.1 nM
B1: Dkk3-AP (Dkk3 conjugated with alkaline phosphatase) (ligand)
chain: not shown
